Reference: the supplement of paper PMC11246515
± gives the standard deviation of the averaged measurements.

Test: total protein half-life in vivo (active degradation + dilution); higher = more stable protein
[1] = E. coli NCM3722 delta-clpP delta-lon delta-hslV, growth: N-lim chemostat, doubling time 6 h
[2] = E. coli NCM3722 delta-clpP, growth: N-lim chemostat, doubling time 6 h
[3] = E. coli NCM3722 delta-hslV, growth: N-lim chemostat, doubling time 6 h
[4] = E. coli NCM3722 delta-lon, growth: N-lim chemostat, doubling time 6 h
[5] = E. coli NCM3722 delta-smpB, growth: N-lim chemostat, doubling time 6 h
[6] = wild type E. coli NCM3722, growth: C-lim chemostat, doubling time 3 h
[7] = wild type E. coli NCM3722, growth: C-lim chemostat, doubling time 6 h
[8] = wild type E. coli NCM3722, growth: C-lim chemostat, doubling time 12 h
[9] = wild type E. coli NCM3722, growth: N-lim chemostat, doubling time 6 h
[10] = wild type E. coli NCM3722, growth: N-lim chemostat, doubling time 12 h
[11] = wild type E. coli NCM3722, growth: P-lim chemostat, doubling time 6 h
[12] = wild type E. coli NCM3722, growth: P-lim chemostat, doubling time 12 h

Sequence	total protein half-life in vivo [1] [h]	total protein half-life in vivo [2] [h]	total protein half-life in vivo [3] [h]	total protein half-life in vivo [4] [h]	total protein half-life in vivo [5] [h]	total protein half-life in vivo [6] [h]	total protein half-life in vivo [7] [h]	total protein half-life in vivo [8] [h]	total protein half-life in vivo [9] [h]	total protein half-life in vivo [10] [h]	total protein half-life in vivo [11] [h]	total protein half-life in vivo [12] [h]
MSRKDLANAIRALSMDAVQKANSGHPGAPMGMADIAEVLWNDFLKHNPTDPTWYDRDRFILSNGHASMLLYSLLHLTGYDLPLEELKNFRQLHSKTPGHPEIGYTPGVETTTGPLGQGLANAVGLAIAERTLAAQFNQPDHEIVDHFTYVFMGDGCLMEGISHEVCSLAGTLGLGKLIGFYDHNGISIDGETEGWFTDDTAKRFEAYHWHVIHEIDGHDPQAVKEAILEAQSVKDKPSLIICRTVIGFGSPNKAGKEEAHGAPLGEEEVALARQKLGWHHPPFEIPKEIYHAWDAREKGEKAQQSWNEKFAAYKKAHPQLAEEFTRRMSGGLPKDWEKTTQKYINELQANPAKIATRKASQNTLNAYGPMLPELLGGSADLAPSNLTIWKGSVSLKEDPAGNYIHYGVREFGMTAIANGIAHHGGFVPYTATFLMFVEYARNAARMAALMKARQIMVYTHDSIGLGEDGPTHQAVEQLASLRLTPNFSTWRPCDQVEAAVGWKLAVERHNGPTALILSRQNLAQVERTPDQVKEIARGGYVLKDSGGKPDIILIATGSEMEITLQAAEKLAGEGRNVRVVSLPSTDIFDAQDEEYRESVLPSNVAARVAVEAGIADYWYKYVGLKGAIVGMTGYGESAPADKLFPFFGFTAENIVAKAHKVLGVKGA	4.98 ± 0.07	5.07 ± 0.55	4.95 ± 0.06	5.06 ± 0.13	4.75 ± 0.27	3.08 ± 0.16	5.63 ± 0.22	10.8 ± 0.69	4.52 ± 0.16	8.32 ± 0.16	5.83 ± 0.35	11.5 ± 0.12
MTMNSFERRNKIIQLVNEQGTVLVQDLAGVFAASEATIRADLRFLEQKGVVTRFHGGAAKIMSGNSETETQEVGFKERFQLASAPKNRIAQAAVKMIHEGMTDPTHVIWTQA	5.66 ± 0.27	5.64 ± 0.21	5.7 ± 0.13	5.59 ± 0.61	6.1 ± 0.52	2.9 ± 0.17	5.62 ± 0.3	12.4 ± 2.1	5.69 ± 0.26	11.3 ± 1.8	5.95 ± 0.17	11.5 ± 0.23
MIDYTAAGFTLLQGAHLYAPEDRGICDVLVANGKIIAVASNIPSDIVPNCTVVDLSGQILCPGFIDQHVHLIGGGGEAGPTTRTPEVALSRLTEAGVTSVVGLLGTDSISRHPESLLAKTRALNEEGISAWMLTGAYHVPSRTITGSVEKDVAIIDRVIGVKCAISDHRSAAPDVYHLANMAAESRVGGLLGGKPGVTVFHMGDSKKALQPIYDLLENCDVPISKLLPTHVNRNVPLFEQALEFARKGGTIDITSSIDEPVAPAEGIARAVQAGIPLARVTLSSDGNGSQPFFDDEGNLTHIGVAGFETLLETVQVLVKDYDFSISDALRPLTSSVAGFLNLTGKGEILPGNDADLLVMTPELRIEQVYARGKLMVKDGKACVKGTFETA	6.21 ± 0.27	5.9 ± 0.13	5.497 ± 0.0056	5.68 ± 0.064	5.3 ± 0.21	2.93 ± 0.1	5.97 ± 0.45	12.8 ± 0.66	5.29 ± 0.25	9.01 ± 0.33	6.11 ± 0.39	13.1 ± 0.29
MKPRQRQAAILEYLQKQGKCSVEELAQYFDTTGTTIRKDLVILEHAGTVIRTYGGVVLNKEESDPPIDHKTLINTHKKELIAEAAVSFIHDGDSIILDAGSTVLQMVPLLSRFNNITVMTNSLHIVNALSELDNEQTILMPGGTFRKKSASFHGQLAENAFEHFTFDKLFMGTDGIDLNAGVTTFNEVYTVSKAMCNAAREVILMADSSKFGRKSPNVVCSLESVDKLITDAGIDPAFRQALEEKGIDVIITGESNE	–	6.55 ± 0.26	5.66 ± 0.25	6.11 ± 1	6.36 ± 0.59	3.36 ± 0.46	6.64 ± 0.39	12.6 ± 2.2	6.06 ± 0.35	13 ± 0.2	5.82 ± 0.56	12.5 ± 0.15
MQGKALQDFVIDKIDDLKGQDIIALDVQGKSSITDCMIICTGTSSRHVMSIADHVVQESRAAGLLPLGVEGENSADWIVVDLGDVIVHVMQEESRRLYELEKLWS [P0AAT6]	6.28 ± 1.2	3.63 ± 1.7	2.21 ± 0.063	5.5 ± 0.84	2.65 ± 0.19	2.6 ± 0.59	3.58	> 16	2.72	3.51 ± 0.17	2.2	4.01
